Experimental findings from article PMC5892705 are described below.

The target in this experiment is human vasopressin V2 receptor (human), P30518.

As to UYIQNUPLG (modifications not checked) [[Se-Se]-OT-OH], the cAMP production, EC50 worked out at 109 nM.
